Biological target: T1, von Willebrand factor (UniProt P04275 764-2813, limits assumed)
T1 construct: also called vWF
Assay: ELISA on coated vWF, bound FVIII detected with chromogenic Coatest SP FVIII reagents; reference value set by definition
Method: All other potencies were calculated in relation to ReFacto AF. […] However, the only significant difference could be detected between Nuwiq and FVIII-19M. The reduced binding, also of FVIII-6rs, might be due to different post-translational modifications made by the CAP-T cells. This could be correlated with the reduced sulfation detected in the heavy and light chain in the Western Blot. Missing sulfation might have influenced vWF binding, as especially the sulfation at Y1683 is important for the binding of vWF.
For the detection of the binding of the FVIII constructs to vWF, another ELISA was performed. In this case, vWF was coated to the wells of a 96-well plate at a concentration of 0.1 U/ml. Afterwards the FVIII variants were applied at a concentration of 0.25 U/ml. ReFacto AF was used as a reference. Each sample was furtheron diluted 1:2 in buffer. A total of 7 serial dilutions were performed. […] After addition of the substrate, the plate was immediately put into a plate reader and the development of the chromogenic substrate was measured at 405 nm for 490 seconds. The generated curves were analyzed using the PLA 3.0 software. Potencies of vWF-binding of the different FVIII products were calculated in relation to ReFacto AF.

potency of binding to vWF (relative to ReFacto AF): 1 relative potency
B1: ReFacto AF (other)
chain: ATRRYYLGAVELSWDYMQSDLGELPVDARFPPRVPKSFPFNTSVVYKKTLFVEFTDHLFNIAKPRPPWMGLLGPTIQAEVYDTVVITLKNMASHPVSLHAVGVSYWKASEGAEYDDQTSQREKEDDKVFPGGSHTYVWQVLKENGPMASDPLCLTYSYLSHVDLVKDLNSGLIGALLVCREGSLAKEKTQTLHKFILLFAVFDEGKSWHSETKNSLMQDRDAASARAWPKMHTVNGYVNRSLPGLIGCHRKSVYWHVIGMGTTPEVHSIFLEGHTFLVRNHRQASLEISPITFLTAQTLLMDLGQFLLFCHISSHQHDGMEAYVKVDSCPEEPQLRMKNNEEAEDYDDDLTDSEMDVVRFDDDNSPSFIQIRSVAKKHPKTWVHYIAAEEEDWDYAPLVLAPDDRSYKSQYLNNGPQRIGRKYKKVRFMAYTDETFKTREAIQHESGILGPLLYGEVGDTLLIIFKNQASRPYNIYPHGITDVRPLYSRRLPKGVKHLKDFPILPGEIFKYKWTVTVEDGPTKSDPRCLTRYYSSFVNMERDLASGLIGPLLICYKESVDQRGNQIMSDKRNVILFSVFDENRSWYLTENIQRFLPNPAGVQLEDPEFQASNIMHSINGYVFDSLQLSVCLHEVAYWYILSIGAQTDFLSVFFSGYTFKHKMVYEDTLTLFPFSGETVFMSMENPGLWILGCHNSDFRNRGMTALLKVSSCDKNTGDYYEDSYEDISAYLLSKNNAIEPRSFSQNPPVLKRHQREITRTTLQSDQEEIDYDDTISVEMKKEDFDIYDEDENQSPRSFQKKTRHYFIAAVERLWDYGMSSSPHVLRNRAQSGSVPQFKKVVFQEFTDGSFTQPLYRGELNEHLGLLGPYIRAEVEDNIMVTFRNQASRPYSFYSSLISYEEDQRQGAEPRKNFVKPNETKTYFWKVQHHMAPTKDEFDCKAWAYFSDVDLEKDVHSGLIGPLLVCHTNTLNPAHGRQVTVQEFALFFTIFDETKSWYFTENMERNCRAPCNIQMEDPTFKENYRFHAINGYIMDTLPGLVMAQDQRIRWYLLSMGSNENIHSIHFSGHVFTVRKKEEYKMALYNLYPGVFETVEMLPSKAGIWRVECLIGEHLHAGMSTLFLVYSNKCQTPLGMASGHIRDFQITASGQYGQWAPKLARLHYSGSINAWSTKEPFSWIKVDLLAPMIIHGIKTQGARQKFSSLYISQFIIMYSLDGKKWQTYRGNSTGTLMVFFGNVDSSGIKHNIFNPPIIARYIRLHPTHYSIRSTLRMELMGCDLNSCSMPLGMESKAISDAQITASSYFTNMFATWSPSKARLHLQGRSNAWRPQVNNPKEWLQVDFQKTMKVTGVTTQGVKSLLTSMYVKEFLISSSQDGHQWTLFFQNGKVKVFQGNQDSFTPVVNSLDPPLLTRYLRIHPQSWVHQIALRMEVLGCEAQDLY

Reference: patent US20240010707A1 (BIOTEST, published 2024)
